Experimental findings from PMC2192655 (The Journal of Cell Biology, 2000) are described below.

In assay [1] the target is Sncp (Snc proteins, secretory vesicle SNARE) (yeast (endogenous in the yeast strains of Table 1)) (UniProt P31109). Nature of the assay: co-IP.
Assay [2] concerns the target T1, Tlg2p (yeast (endogenous in the yeast strains), UniProt Q08144 1-397).
T1 sequence: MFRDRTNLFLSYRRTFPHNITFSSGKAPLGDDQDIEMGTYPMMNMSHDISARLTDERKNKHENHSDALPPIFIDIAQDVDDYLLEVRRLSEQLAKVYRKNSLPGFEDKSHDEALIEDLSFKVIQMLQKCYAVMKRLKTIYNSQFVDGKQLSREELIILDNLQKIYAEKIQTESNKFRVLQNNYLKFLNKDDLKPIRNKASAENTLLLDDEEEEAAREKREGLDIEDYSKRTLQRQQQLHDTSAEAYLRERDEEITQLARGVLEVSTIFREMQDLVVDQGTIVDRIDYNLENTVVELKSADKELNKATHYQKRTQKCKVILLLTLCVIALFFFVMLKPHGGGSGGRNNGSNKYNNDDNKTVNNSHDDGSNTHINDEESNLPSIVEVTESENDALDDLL
Nature of the assay: co-IP.

Sequence of Sncp (Snc proteins, secretory vesicle SNARE) (yeast (endogenous in the yeast strains of Table 1)) (P31109 whole entry): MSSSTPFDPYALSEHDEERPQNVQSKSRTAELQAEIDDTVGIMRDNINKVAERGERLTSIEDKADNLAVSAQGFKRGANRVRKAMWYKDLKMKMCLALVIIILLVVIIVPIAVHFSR

In turn, “Ssop (Sso proteins, plasma membrane SNARE) (from UniProt P32867 1-290) (natural protein)” displayed a percent of total Ssop coprecipitating with Sncp in assay [1] of 0.7%.

B1: HA-Snc2p (COOH-terminally triple-HA-tagged Sncp) (natural protein)
chain: MSSSVPYDPYVPPEESNSGANPNSQNKTAALRQEIDDTVGIMRDNINKVAERGERLTSIEDKADNLAISAQGFKRGANRVRKQMWWKDLKMRMCLFLVVIILLVVIIVPIVVHFS
Regarding B1, the “fold less bound to Tlg2p than to Ssop” value in assay [2] was 10 fold.
